Measurements reported in patent US20130266574A1 (Regeneron, published 2013).

T1: full-length hANGPTL4 (amino acid residues 26-406 of SEQ ID NO:476) with a C-terminal hexa-histidine tag (human, UniProt Q9BY76 26-406)
T1 sequence: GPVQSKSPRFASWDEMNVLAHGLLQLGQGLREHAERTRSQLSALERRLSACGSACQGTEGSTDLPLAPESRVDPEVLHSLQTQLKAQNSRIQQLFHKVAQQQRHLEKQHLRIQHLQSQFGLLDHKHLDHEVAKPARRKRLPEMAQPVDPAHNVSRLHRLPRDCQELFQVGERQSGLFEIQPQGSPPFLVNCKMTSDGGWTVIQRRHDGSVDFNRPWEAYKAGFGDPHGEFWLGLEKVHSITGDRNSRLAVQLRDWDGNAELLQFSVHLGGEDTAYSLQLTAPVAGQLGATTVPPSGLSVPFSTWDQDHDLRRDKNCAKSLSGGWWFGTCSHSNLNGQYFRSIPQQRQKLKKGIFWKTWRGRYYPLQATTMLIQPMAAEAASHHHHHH

T2: amino acid residues 26-148 of human ANGPTL4 fused in-line to mouse IgG2a (hANGPTL4-mFc) (human)
T2 chain: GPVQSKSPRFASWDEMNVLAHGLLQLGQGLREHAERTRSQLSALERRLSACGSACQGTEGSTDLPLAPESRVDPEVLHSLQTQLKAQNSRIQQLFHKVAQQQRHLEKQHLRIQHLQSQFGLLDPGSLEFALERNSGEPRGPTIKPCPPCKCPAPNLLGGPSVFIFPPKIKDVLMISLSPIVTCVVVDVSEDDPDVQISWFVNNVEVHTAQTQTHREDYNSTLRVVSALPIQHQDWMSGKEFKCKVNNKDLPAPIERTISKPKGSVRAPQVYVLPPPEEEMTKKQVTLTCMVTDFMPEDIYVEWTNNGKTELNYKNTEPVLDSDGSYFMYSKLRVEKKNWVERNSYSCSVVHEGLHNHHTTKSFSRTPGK


Key:
[1] = biological target: T1, full-length hANGPTL4 (amino acid …); test: cell-based or functional assay
[2] = biological target: T2, amino acid residues 26-148 of human …; test: cell-based or functional assay
[3] = biological target: T2, amino acid residues 26-148 of human …; test: SPR (Biacore T100), hANGPTL4-mFc captured by anti-mouse IgG, antibody injected, 25° C.
Experimental: (§1) Antigen-antibody binding and dissociation were monitored in real time at 25° C. and 37° C. Kinetic analysis was performed to calculate KD and half-life of antigen/antibody complex dissociation.

[4] = biological target: T2, amino acid residues 26-148 of human …; test: SPR (Biacore T100), hANGPTL4-mFc captured by anti-mouse IgG, antibody injected, 37° C.
Experimental: as §1

[5] = biological target: T2, amino acid residues 26-148 of human …; test: SPR (Biacore), pH 7.4, 25° C., protocol of Example 3
Experimental: as §1
Furthermore, a single amino acid substitution was introduced in the framework region 1 of H1H268P (SEQ ID NO:42) to form H4H268P2 (SEQ ID NO:487) in the IgG4 version.

[6] = biological target: T1, full-length hANGPTL4 (amino acid …); test: cell-based or functional assay; remark: listed apart in the source
[7] = biological target: T2, amino acid residues 26-148 of human …; test: cell-based or functional assay

Binder | % Inhibition of hANGPTL4 Activity (LPL lipase test), hANGPTL4-His (10 nM) [1] [%] | % Inhibition of hANGPTL4 Activity (LPL lipase test), hANGPTL4-mFc (2 nM) [2] [%] | Kd [3] [nM] | t1/2 [3] [min] | Kd [4] [nM] | t1/2 [4] [min] | Kd [5] [nM] | t1/2 [5] [min] | IC50 (nM) in the LPL inhibition assay, constant ANGPTL4 10 nM [6] [nM] | IC50 (nM) in the LPL inhibition assay, constant ANGPTL4 2 nM [7] [nM]
H1H653P (antibody, V domains shown, Fully human antibody, H1H prefix (human IgG1)) VH: QVQLVESGGGVVQPGRSLRLSCVASGFTFSSYGMHWVRQAPGKGLEWMAVIWYDGSNKYFADSVKDRFTISRDNSKNTLYLQMNTLRPDDTAVYYCVKADAPLLIYGVDVWGQGTTVTVS VL: DIQMTQSPSSLSASVGDRVTITCRASQGIRNDLGWYQEKPGKAPKRLIYFASSLQSGVPSRFSGSGSGTEFTLTISSLQPEDFATYYCLQHNSYPYTFGQGTKLEIK | 48 | 55 | 0.411 | 43 | 2.13 | 6 | – | – | – | –
H1H283P (antibody, V domains shown, Fully human antibody, H1H prefix (human IgG1)) VH: EVQLVESGGGLVQPGGSLRLSCAASGFTFSSYDMHWVRQVAGKGLEWVSAIGTAGDTYYPVSVKGRFTISRENAKNSLYLHMNSLRAGDTAVYFCARGDSRNYYVGDYFDYWGQGTLVTVSS VL: DIQMTQSPSTLSASVGDRVTITCRASQSISRWLAWYQQKPGKAPKVLIYKASNLESGVPSRFSGSGSGTEFTLTISSLQPDDFATYYCQQYNSYSRTFGQGTKVEIK | – | – | 0.13 | 119 | 1.36 | 12 | – | – | – | –
H1H291P (antibody, V domains shown, Fully human antibody, H1H prefix (human IgG1)) VH: EVQLVESGGGLVQPGGSLRLSCAASGFTFSTYDMHWVRQGLGKGLEWVSAIGSAGDTYYPGSVKGRFTISRDNAKSSLFLHMNSLRAGDTALYYCARGDSRNYFVGDYFDYWGQGTLVTVSS VL: DIQMTQSPSTLSASIGDRVTITCRASQSISSWLAWYQQKPGKAPKVLIYKASSLEAGVPSRFSGSGSGTEFTLTISSLQPDDFASYYCQQYSSYSRTFGQGTKVEIK | – | – | 0.0876 | 303 | 0.178 | 122 | – | – | – | –
H1H644P (antibody, V domains shown, Fully human antibody, H1H prefix (human IgG1)) VH: EVQLVESGGGLVQPGGSLRLSCAASGFTFSSYDMHWVRQVAGKGLEWVSAIGTAGDTYYPVSVKGRFTISRENAKNSLYLHMNSLRAGDTAVYYCARGDSRNYYVGDYFDYWGQGTLVTVSS VL: DIQMTQSPSTLSASVGDRVTITCRASQSISRWLAWYQQKPGKAPKVLIYKASNLESGVPSRFSGSGSGTEFTLTISSLQPDDFATYYCQQYNTYSRTFGQGTKVEIK | – | – | 0.111 | 144 | 3 | 6 | – | – | – | –
H1H638P (antibody, V domains shown, Fully human antibody, H1H prefix (human IgG1)) VH: EVQLVESGGGLVQPGGSLRLSCVASGFTFSSYDMHWVRQVAGKGLEWVAAIGTAGDTYYPVSVKGRFTISRENAKNSLSLHMNSLRAGDTAVYYCARGDSRNYYVGDYFDYWGQGTLVTVSS VL: DIQMTQSPSTLSASVGDRVTITCRASQSISRWLAWYQQKPGKAPKVLIYKASSLKSGVPSRFSGSGSGTEFTLTISSLQSDDFATYYCQQYNSYSRTFGQGTKVEIK | – | – | 0.193 | 85 | 0.299 | 48 | – | – | – | –
H1H624P (antibody, V domains shown, Fully human antibody, H1H prefix (human IgG1)) VH: EVQLVESGGGLVQPGGSLRLSCAASEFIFSSYAMNWVRQAPGKGLEWVSVISGSGDSKYYADSVKGRFTISRDNSKNTLYLQMNSLRVEDTAVYYCAKDGKDRYGFYYNFYGMDVWGQGTTVTVS VL: DIQMTQSPSFLSASVGDRVTITCWASQGISSYLAWYQQKPGKAPKILIYAASTLQSGVPSRFSASGSGTEFTLTISSLQPEDFATYHCQQLNSYPFTFGPGTKVDIK | 48 | 62 | 1.19 | 7 | 3.71 | 3 | – | – | – | –
H4H284P (antibody, human IgG4 S228P, V domains shown, IgG4 version of H1H284P (constant region replaced)) VH: QVQLVESGGGVVQPGRSLRLSCAASGFTFSSYGMHWVRQAPGKGLEWMAVISFDGGNKNNADSVKGRFTISRDNSKNTLYLQMNSLRAEDTAVYYCAKEGDRSGHPYFYYYGLDVWGQGTTVTVSA VL: DIQLTQSPSFLSASVGDRVTITCWASQGISSYLAWYQQKPGKAPKLLIYAASTLQSGVPSRFSGSGSETEFTLTISSLQPEDFATYYCQQLHSYPLTFGGGTKVEIK | – | – | – | – | – | – | 0.143 | 205 | 1.19 | 1.69
H4H268P2 (antibody, human IgG4 S228P, V domains shown, IgG4 version of H1H268P) VH: QVQLQQSGAGLLKPSETLSLTCTVYGGSFSIHHWTWIRHPPGKGLEWIGEINHRGSTNYNPSLKSRVTISIDTSKNQFSLKLSAVTAADTAVYYCARGLRFLDWLSSYFDYWGQGTLVTVSS VL: DIQMTQSPSSLSASVGDRVTITCRASQGISDYLAWYQQKPGKVPNLLIYAASALQSGVPSRFSGSGSGTDFTLTISSLQPEDVATYYCQNYNTAPLTFGGGTKVEIK | – | – | – | – | – | – | 0.146 | 195 | 1.61 | 1.85

The next lines start with the values.

% Inhibition of hANGPTL4 Activity (LPL lipase test), hANGPTL4-His (10 nM) [1] [%] | % Inhibition of hANGPTL4 Activity (LPL lipase test), hANGPTL4-mFc (2 nM) [2] [%] | Kd [3] [nM] | t1/2 [3] [min] | Kd [4] [nM] | t1/2 [4] [min] | Kd [5] [nM] | t1/2 [5] [min] | IC50 (nM) in the LPL inhibition assay, constant ANGPTL4 10 nM [6] [nM] | IC50 (nM) in the LPL inhibition assay, constant ANGPTL4 2 nM [7] [nM] | Binder
53 | 20 | 0.136 | 112 | 0.167 | 88 | – | – | – | – | H1H292P (antibody, V domains shown, Fully human antibody, H1H prefix (human IgG1)) VH: EVQLVESGGGLVQPGGSLRLSCVASGFTFSSYDMHWVRQLPGKGLEWVSAIGVAGDTYYPASVKGRFTISRENAKNSLYLQMNSLRAGDTAVYYCARGDSGNYYDGDYFDFWGQGTLVTVSS VL: DIQMTQSPSTLSASVGDRVTITCRASQSINRWLAWYQQKPGKAPKVLIYKASNLESGVPSRFSGSGSGTEFTLTISSLQPDDFATYYCQQYDSYFRTFGQGTKVEIK
47 | 28 | 0.0925 | 156 | 0.194 | 71 | – | – | – | – | H1H285P (antibody, V domains shown, Fully human antibody, H1H prefix (human IgG1)) VH: EVQLVESGGGLVQPGGSLRLSCAASGFTFSRYDMHWVRQVTGKGLEWVSGIGTAGDTYYPGSVKGRFTISRENDKNSLYLQMNSLRVGDTAVYYCARGDSKNYYVGDYFDYWGQGTLVTVSS VL: DIQMTQSPSTLSASVGDRVTFTCRASHSIGNWLAWYQQKPGKAPKVLIYEASSLEDGVPSRFSGSGSGTEFTLTISSLQPDDFATYYCQQYDTYFRTFGQGTKVEIK
– | 16 | 0.201 | 91 | 0.238 | 63 | – | – | – | – | H1H257P (antibody, V domains shown, Fully human antibody; the H1H prefix stands for human IgG1 (said outright only for H1H268P and H1H284P)) VH: EVQLVESGGGLVQPGGSLRLSCAASGFTFSSYDMHWVRQVAGKGLEWVSAIGTAGDTYYPVSVKGRFTISRENAKNSLYLHMNSLRAGDTAVYFCARGDSRNYYVGDYFDYWGQGTLVTVSS VL: DIQMTQSPSTLSASVGDRVTITCRASQSISRWLAWYQQKPGKAPKVLIYQASNLESGVPSRFSGSGSGTEFTLTISSLQPDDFATYYCQQYDSYSRAFGRGTKVEIK
– | – | 0.0307 | 874 | 2.62 | 10 | – | – | – | – | H1H295P (antibody, V domains shown, Fully human antibody, H1H prefix (human IgG1)) VH: EVQLVESGGGLVQPGGSLRLSCAASGFTFSTYDMHWVRQAPGKGLEWVSAIGSAGDTYYPGSVKGRFTISRDNAKSSLFLQMNSLRAGDTALYYCARGDSRNYFVGDYFDYWGQGTLVTVSS VL: DIQMTQSPSTLSASVGDRVTITCRASQSIGTWLAWYQQKPGKAPKILIYKASSLEGGVPSRFSGSGSGTEFTLTISSLQPDDFANYYCQQYNSFYRTFGQGTKVEIK
19 | 13 | – | – | – | – | – | – | – | – | H1H236N2 (antibody, V domains shown) VH: EVQLVESGGGLVQPGRSLRLSCAASGFTFDDYAMHWVRQAPGKGLEWVSGISWNSGSIVYADSVKGRFTISRDNAKNSLYLQMNSLISEDTALYYCAKDESSSSGNWFDPWGQGTLVTVSS VL: EVVMTQSPATLSVSPGERATLSCRASQSVSSNLAWYQQKPGQAPRLLIYGASTRATGIPARFSGSGSGTEFTLTISSLQSEDFAVYYCQEYNNWITFGQGTRLEIK
